The values that follow come from patent publication US5976535A, “Pretargeting protocols for the enhanced localization of cytotoxins to target sites and cytotoxic combinations useful therefore” (NeoRx Corporation, priority 1995, dated 1999).

As usually defined, the half-life is how long it takes for the measured level to halve. High values mean slow loss, low ones fast loss.

For one data set, the system named is LS-180 tumor. The settings on record: mouse, in vivo.
Data set [1] relates to LS-180 tumor xenografts. The data set is described as follows: Tumor uptake of PIP-biocytin (two-step pretargeting). Format: in vivo, tumored nude mice. Here is the method:
(§1) At 24 hours, the mice received an i.v. injection of PIP-I-131-biocytin (40 μCi) and an amount of cold carrier PIP-I-127 biocytin corresponding to doses of 42 μg (69,767 pmol), 21 μg (34,884 pmol), 5.7 μg (9468 pmol), 2.85 μg (4734 pmol) or 0.5 μg (830 pmol).

Test in data set [2]: as above
Format: in vivo, tumored nude mice. The settings on record: mouse, tumor, 0.0005 mg; 0.5 μg dose; 120 hour time point (96 hours after administration); read-out: peak tumor uptake. Here is the method:
as §1

The subject of data set [3] is LS-180 tumor xenografts. Description: Two-step pretargeting of 131I-PIP-biocytin in tumor-bearing mice. Type of data set: in vivo, female nude mice. To be noted: 200 μg NR-LU-10-streptavidin at t=0; 42 μg at t=36 h. Here is the method: At t=0, the mice were injected with 200 μg of NR-LU-10-streptavidin conjugate labeled with ^125 I using PIP-NHS (see Example IV.A.). At t=36 h, the mice received 42 μg of ^131 IPIP-biocytin.

The nature of a further data set: in vivo. The settings on record: mouse.
Data set [4] concerns LS-180 human colon tumor xenografts. Here is the method:
The experimental protocol was as follows:
Group 1: Time 0, inject 100 μg ^125 I-labeled,
The three radiolabels employed in this protocol are capable of detection in the presence of each other.
Areas under the curves (AUC) and the ratio of AUCtumor /AUCblood were determined.

For data set [5] the following is noted: in vivo; cited from earlier work.
Data set [6] has as its target T1, Streptavidin-agarose beads (Streptomyces avidinii, UniProt P22629).
T1 construct: purchased Sigma S-1638
Description: Binding to streptavidin-agarose beads. The settings on record: for Pellet: radioactivity bound to beads; for Supernatant: radioactivity not bound to beads. Here is the method: B. Biotinylation of asialoorosomucoid clearing agent and orosomucoid control. 100 μl of 0.2 M sodium carbonate buffer, pH 9.2, was added to 2 mg (in 1.00 ml PBS) of PIP-125-labeled orosomucoid and to 2 mg PIP-125-labeled asialoorosomucoid. 60 μl of a 1.85 mg/ml solution of NHS-amino caproate biotin in DMSO was then added to each compound. The reaction mixtures were vortexed and allowed to sit at room temperature for 45 minutes. […]. Streptavidin-agarose beads (Sigma S-1638) or -pellets were washed with PBS, and 20 μg of each biotinylated, radiolabeled protein was added to 400 μl of beads and 400 μl of PBS, vortexed for 20 seconds and centrifuged at 14,000 rpm for 5 minutes. The supernatant was removed and the pellets were washed with 400 μl PBS. This wash procedure was repeated twice more, and the combined supernatants were assayed by placing them in a dosimeter versus their respective pellets.

The format of data set [7] is in vivo, female BALB/c mice. The settings on record: 5 minutes post-administration, percent injected dose of I-125-labeled protein. Here is the method: A. Derivitization of orosomucoid. 10 mg human orosomucoid (Sigma N-9885) was dissolved in 3.5 ml of pH 5.5 0.1 M sodium acetate buffer containing 160 mM NaCl. 70 μl of a 2% (w/v) CaCl solution in deionized (D.I.) water was added and 11 μl of neuraminidase (Sigma N-7885), 4.6 U/ml, was added. The mixture was incubated at 37° C. for 2 hours, and the entire sample was exchanged over a Centricon-10® ultrafiltration device (available from Amicon, Danvers, Mass.) with 2 volumes of PBS. The asialoorosomucoid and orosomucoid starting material were radiolabeled with I-125 using PIP technology, as described in Example IV above.
In addition, two animals receiving each compound were sacrificed at 5 minutes post-administration and limited biodistributions were performed.

Where two headings read alike, the source gives them in different places.

T1 sequence (P22629 25-183): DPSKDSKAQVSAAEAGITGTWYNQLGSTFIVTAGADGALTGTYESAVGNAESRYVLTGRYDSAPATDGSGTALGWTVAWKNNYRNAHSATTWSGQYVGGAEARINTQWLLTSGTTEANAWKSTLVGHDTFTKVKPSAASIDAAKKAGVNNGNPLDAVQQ
Description for in vivo: Time 0 inject (i.v.) 200 μg NR-LU-10-StrAv

As for `O=C(CCCCC1SCC2NC(=O)NC21)NCCCCC(NC(=O)c1ccc([131I])cc1)C(=O)O` (stereo not shown) [PIP-biocytin], in the data set with LS-180 tumor, the peak tumor uptake result is on record as “about 700 pMOL/G” and the tumor uptake result is listed as “above 500 pMOL/G”. The “absolute AUCtumor” value in the data set on LS-180 tumor xenografts [1] (mouse, in vivo) is 9220. Also, the tumor localization result in the data set with LS-180 tumor xenografts [1] (three highest doses (42, 21, 5.7 μg), 4 hours after injection) is listed as “about 600 pmol/g”. The tissue uptake at 96 h in data set [2] came to 85 %ID/g. Further, the “specific tumor localization, molecules per avidin molecule” value with LS-180 tumor xenografts [3] is given as “≈ 1.5”. Further, in “in vivo”, the half-life is around 5 min.
Avidin: the tumor uptake entry is “about 250 pmol/g” in data set [4] (at 25 h (antibody at time 0, avidin at 24 h)); around 150 pmol/g in data set [4] (at 32 h (antibody at time 0, avidin at 24 h)); around 50 pmol/g in [4] (at 48 h (antibody at time 0, avidin at 24 h)); around 0 pmol/g in data set [4] (at 120 h (antibody at time 0, avidin at 24 h)).
For TNF-alpha, the serum half-life in [5] is 10 to 15 min.
On to “asialoorosomucoid: orosomucoid treated with neuraminidase to remove sialic acid residues”, for which, in data set [6], the Pellet amounted to 8.0% and the Supernatant is listed as 92%. The blood level in data set [7] is on record as 0.4%.
Turning to “orosomucoid: human orosomucoid (alpha-1 acid glycoprotein, Sigma N-9885), I-125 labeled [reference compound]”, in data set [6], the Pellet was determined as 10% and the Supernatant amounted to 90%. Moreover, the blood level in data set [7] was 78%.

B1: TNF-beta: tumor necrosis factor beta form, 171 amino acids (protein, UniProt P01374 35-205, looked up)
Lymphotoxin-alpha: LPGVGLTPSAAQTARQHPKMHLAHSTLKPAAHLIGDPSKQNSLLWRANTDRAFLQDGFSLSNNSLLVPTSGIYFVYSQVVFSGKAYSPKATSSPLYLAHEVQLFSSQYPFHVPLLSSQKMVYPGLQEPWLHSMYHGAAFQLTQGDQLSTHTDGIPHLVLSPSTVFFGAFAL
In the case of B1, the serum half-life in data set [5] was 10 to 15 min.
